Experimental findings from patent USRE47223 (Genentech, dated 2019) are described below.

This assay has as its target T1, TAT10772 polypeptide (human).
T1 construct: Cell-surface TAT10772 on engineered PC3 cells (PC3/A5.3B2), OVCAR-3, OVCA-432, SK-OV-3 cells and tumor tissue; also called TAT10772 target polypeptide
The experiment in a line: Scatchard analysis, IgG.

B1: 3A5v4b.54 (SEQ ID NO:209) (antibody, V domains shown)
VH: EVQLVESGGGLVQPGGSLRLSCAASGYSITNDYAWNWVRQAPGKGLEWVGYINYAGYTTYNPSLKSRFTISRDTSKNTLYLQMNSLRAEDTAVYYCARWTSGLDYWGQGTLVTVSS
VL: DIQMTQSPSSLSASVGDRVTITCKASDLIHNWLAWYQQKPGKAPKLLIYGATSLETGVPSRFSGSGSGTDFTLTISSLQPEDFATYYCQQYWTTPFTFGQGTKVEIKR
B1: the binding result is reported as “binds”.
